Experimental data: paper PMC5431965

Key:
[1] = target: HydF V261C mutant (cysteine-less background), spin labeled with MTSSL (Thermotoga neapolitana); test: PELDOR (DEER) pulse EPR; distances between spin labels on the two monomers; protein about 150 uM in deuterated buffer with 33% v/v deuterated glycerol, quickly frozen, Q-band, 50 K; without and with 10 mM GTP
[2] = target: HydF, wild type recombinant, Thermotoga neapolitana (Thermotoga neapolitana); test: SEC; Superdex 200 GL 10 300 in 25 mM Tris-HCl pH 8.0, 200 mM KCl, 1 mM MgCl2; column calibrated with molecular weight standards

Row | stoichiometry N [1] | stoichiometry N [2] | Substance
1 | 2 |  | HydF V261C mutant (cysteine-less background), spin labeled with MTSSL (natural protein)
2 |  | 2 | HydF, wild type recombinant, Thermotoga neapolitana (natural protein)
